Experimental data taken from article PMC5700950.

Target: C3d, the covalently bound activation product of complement C3, in mouse myocardium (mouse (endogenous in C57BL/6 heart)) (UniProt P01027)
Assay: ex vivo organ biodistribution (gamma counting); organs removed after imaging, weighed and gamma counted; heart to blood ratio of injected dose per gram

Sequence of UniProt P01027 (P01027 1002-1303): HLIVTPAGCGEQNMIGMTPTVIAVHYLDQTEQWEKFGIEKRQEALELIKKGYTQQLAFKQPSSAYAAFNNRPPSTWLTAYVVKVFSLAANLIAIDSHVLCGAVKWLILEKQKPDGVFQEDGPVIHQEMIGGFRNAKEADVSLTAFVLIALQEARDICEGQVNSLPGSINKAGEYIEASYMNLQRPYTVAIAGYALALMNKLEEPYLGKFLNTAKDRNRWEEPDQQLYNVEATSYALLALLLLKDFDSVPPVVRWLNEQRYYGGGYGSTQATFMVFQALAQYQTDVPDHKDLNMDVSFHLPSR

## 99mTechnecium-labelled recombinant complement receptor 2 (SCR1 and SCR2 of human CR2) (domain or fragment)
  heart to blood ratio of %ID/g (heart to blood ratio of %ID/g): 1.17
